# Values of other authors as cited in publication PMC12135873.
# Biological target: Cys106 (UniProt position 106, LIAAICAGPTA)
substance,measurement,value
"DJ-1 (PARK7, Parkinson disease protein 7) (Homo sapiens)",pKa,5.4
